From US20200057058A1 (MIT, published 2020)

Legend:
[1] = molecular target: monomeric streptavidin variant mSA2; assay: fluorescent binding curves, labeled mSA2 in 50% urine or 50% blood serum, 4 h
streptavidin [2] = molecular target: T1, streptavidin (UniProt P22629 37-163, limits assumed); assay: fluorescent binding curve, labeled SA in PBS, 4 h exposure; quadratic fit
T1 construct: It was used without a stated label in the sandwich assays; also called SA

[3] = molecular target: monomeric streptavidin variant mSA2; assay: fluorescent binding curve, labeled mSA2 in PBS, 4 h exposure; quadratic fit
Method: (§1) The binding function of rcSso7d.SA oligomer-PNIPAM thin films was measured using fluorescently-labeled monomeric streptavidin (mSA2) and fluorescently-labeled streptavidin (SA). Details for the expression, purification, and fluorescent labeling of mSA2 are provided below. Samples were prepared by serial dilution of SA or mSA2 in PBS (pH 7.4), human urine (diluted to 50% v/v in PBS, pH 7.4), or blood serum (obtained as the supernatant by centrifuging whole blood at 1500×g for 10 minutes, then diluted to 50% v/v in PBS, pH 7.4). 0.5 μL drops of solutions containing serially diluted fluorescent mSA2 and fluorescent SA samples in PBS (pH 7.4) were gently applied to the surface of each bioconjugate thin film. Films were incubated in a sealed chamber saturated with water vapor at room temperature to prevent to prevent drying of the applied fluorescent samples. […] Fluorescence microscopy images were acquired at 4× magnification using a Cy5 filter set and exposure time of 5000 ms on an Olympus IX-81 inverted fluorescence microscope with an AxioCam HRC CCD camera. Fluorescent intensity was calculated using ImageJ software⁶⁷ by determining the average fluorescent signal in a rectangular area of the fluorescent image free of defects and occupying no less than half of the full sample application area.
(§2) To evaluate how the apparent size-based diffusion properties translated to biosensing capabilities, binding curves were measured using SA and mSA2 solutions in buffer. Binding curves were fit with a quadratic model that is a function of three parameters: the average MFI per binding event a, the total concentration of binding sites [P]T, and the apparent dissociation constant K_{d,app} describing the binding equilibrium between analyte and binding sites within the thin film.

streptavidin [4] = molecular target: T1, streptavidin; assay: fluorescent binding curve, labeled SA in 50% blood serum, 4 h; quadratic fit
[5] = molecular target: monomeric streptavidin variant mSA2; assay: fluorescent binding assay, labeled mSA2 in PBS on monolayer; quadratic curve fit
Method: The binding function of rcSso7d.SA oligomer-PNIPAM thin films was measured using fluorescently-labeled monomeric streptavidin (mSA2) and fluorescently-labeled streptavidin (SA). Details for the expression, purification, and fluorescent labeling of mSA2 are provided below. Samples were prepared by serial dilution of SA or mSA2 in PBS (pH 7.4), human urine (diluted to 50% v/v in PBS, pH 7.4), or blood serum (obtained as the supernatant by centrifuging whole blood at 1500×g for 10 minutes, then diluted to 50% v/v in PBS, pH 7.4). 0.5 μL drops of solutions containing serially diluted fluorescent mSA2 and fluorescent SA samples in PBS (pH 7.4) were gently applied to the surface of each bioconjugate thin film. […] After 1 hour, films were thoroughly rinsed with water for 10 seconds (a time determined to be sufficient to remove unbound molecules from the film, see FIG. 33, dried under filtered airflow, and immediately analyzed for fluorescent signal. Fluorescence microscopy images were acquired at 4× magnification using a Cy5 filter set and exposure time of 5000 ms on an Olympus IX-81 inverted fluorescence microscope with an AxioCam HRC CCD camera. Fluorescent intensity was calculated using ImageJ software⁶⁷ by determining the average fluorescent signal in a rectangular area of the fluorescent image free of defects and occupying no less than half of the full sample application area. […]

[6] = molecular target: monomeric streptavidin variant mSA2; assay: fluorescent binding assay, labeled mSA2; signal three standard deviations above blank
[7] = molecular target: monomeric streptavidin variant mSA2; assay: fluorescent binding assay, labeled mSA2 in PBS on the monolayer, 4 h exposure
streptavidin [8] = molecular target: T1, streptavidin; assay: apparent Kd (Kd,app); fluorescent binding curve, labeled SA in PBS, 4 h exposure; quadratic fit
[9] = molecular target: monomeric streptavidin variant mSA2; assay: apparent Kd (Kd,app); fluorescent binding curve, labeled mSA2 in PBS, 4 h exposure; quadratic fit
Method: as §1, §2

streptavidin [10] = molecular target: T1, streptavidin; assay: apparent Kd (Kd,app); fluorescent binding curve, labeled SA in 50% blood serum, 4 h; quadratic fit

T1 sequence (P22629 37-163 limits assumed): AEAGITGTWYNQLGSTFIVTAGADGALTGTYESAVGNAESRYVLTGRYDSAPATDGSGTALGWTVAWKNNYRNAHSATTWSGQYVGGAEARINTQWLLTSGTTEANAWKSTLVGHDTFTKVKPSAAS

B1: rcSso7d.SA monolayer (designed binder)
chain: MGSIHHHHHHSSGLVPRGSHMCATVKFTYQGEEKQVDISKIKIVARDGQYIDFKYDEGGGAYGYGWVSEKDAPKELLQMLEKQ
modifications: EDC/NHS-activated protein coupled to an amine-functionalized silicon wafer
notes: also called monomeric rcSso7d.SA; surface-immobilized rcSso7d.SA
sensitivity in the fluids relative to buffer [1]: ≤ 10 fold | [P]T (total concentration of binding sites) (streptavidin [2]): 0.36 nM | [P]T (total concentration of binding sites) [3]: 0.35 nM | [P]T (total concentration of binding sites) (streptavidin [4]): 0.28 nM | Kd [5]: 2000 nM | limit of detection (LOD) [6]: 360 nM | EC50 (read off the curve) [7]: ~3000 nM | Kd (streptavidin [8]): 8000 nM | Kd [9]: 3000 nM | Kd (streptavidin [10]): 40000 nM
